Laboratory results published in patent publication US20170369576A1 (UBI US, published 2017).
Values joined by “and” are separate entries in the source; they are usually repeats but may differ in a detail not shown here. Identical values can stand only once.

Tests used:
[1] = target: T1, baboon CD4 on CD4 positive T cells (baboon (Papio species), UniProt A0A096MWA4 26-457); assay: binding to baboon CD4 positive T cells (FIG. 21)
T1 construct: also called baboon CD4+ T cells

[2] = target: T2, human CD4, membrane-bound on cells (HPB-ALL cells, blood/PBMC CD4+ T cells, assay target cells) (human, UniProt P01730 26-458); assay: comparison of IC50 values, competition FACS on HPB-ALL cells
T2 construct: whole, on cells; Target on human HPB-ALL T-leukemic cells, human blood CD4+ T lymphocytes and CD4+ indicator cells of the neutralisation assays; also called CD4 receptor; surface CD4

recombinant soluble CD4 = target: T3, recombinant soluble CD4 (UniProt P01730 26-390, limits assumed); assay: competition ELISA on coated sCD4/p2704a mixture; inhibition of B4-biotin (10 µg/mL)
T3 construct: also called sCD4; rsCD4

[3] = target: T2, human CD4, membrane-bound on cells …; assay: comparison of IC50 values of FACS competition (HPB-ALL) and ELISA competition (sCD4/p2704a)
Procedure: On V-bottomed microplates, aliquots of 2×10⁵ cells in 0.1 mL per well were added, centrifuged, and liquid discarded. […] The cells were washed once and the liquid discarded after centrifugation. To each well, aliquots of 200 μL of binding buffer were added and transferred to microdilution tubes for flow cytometric analysis. The binding intensity (mean fluorescence intensity, MFI), based on an inlet of 5,000 cells per sample, was read on FACS.

[4] = target: T2, human CD4, membrane-bound on cells …; assay: FACS, fresh blood CD4+ T cells of subject F1; bound dB4 detected by goat anti-hIgG-FITC
Source text: (§1) The samples were calibrated with reference beads for fluorescence reading.

[5] = target: T2, human CD4, membrane-bound on cells …; assay: FACS, fresh blood CD4+ T cells of subject F2; bound dB4 detected by goat anti-hIgG-FITC
Source text: as §1

[6] = target: T2, human CD4, membrane-bound on cells …; assay: FACS, fresh blood CD4+ T cells of subject F3; bound dB4 detected by goat anti-hIgG-FITC
Source text: as §1

[7] = target: T2, human CD4, membrane-bound on cells …; assay: FACS, fresh blood CD4+ T cells of subject M1; bound dB4 detected by goat anti-hIgG-FITC
Source text: as §1

[8] = target: T2, human CD4, membrane-bound on cells …; assay: FACS, fresh blood CD4+ T cells of subject M2; bound dB4 detected by goat anti-hIgG-FITC
Source text: as §1

[9] = target: T2, human CD4, membrane-bound on cells …; assay: FACS, fresh blood CD4+ T cells of subject M3; bound dB4 detected by goat anti-hIgG-FITC
Source text: as §1

[10] = target: T2, human CD4, membrane-bound on cells …; assay: FACS direct binding to HPB-ALL cells, on ice 1 h, goat F(ab)2 anti-huIgG Fc-FITC; EC50 by MFI, exp. 3
Procedure: (§2) On V-bottomed microplates, aliquots of 2×10⁵ cells in 0.1 mL per well were added, centrifuged, and liquid discarded. […] This step was repeated one more time. The cells from the three incubations (passages) were investigated. […] The cells were washed once and the liquid discarded after centrifugation. To each well, aliquots of 200 μL of binding buffer were added and transferred to microdilution tubes for flow cytometric analysis. The binding intensity (mean fluorescence intensity, MFI), based on an inlet of 5,000 cells per sample, was read on FACS.
(§3) The absolute MFI values were also normalized to % MFI for purpose of between-passage comparison.

[11] = target: T2, human CD4, membrane-bound on cells …; assay: FACS direct binding to HPB-ALL cells, on ice 1 h, goat F(ab)2 anti-huIgG Fc-FITC; EC50 by % MFI, exp. 3
Procedure: as §2, §3

[12] = target: T2, human CD4, membrane-bound on cells …; assay: FACS direct binding to HPB-ALL cells, on ice 1 h, goat F(ab)2 anti-huIgG Fc-FITC; EC50 by MFI, mean of 3
Procedure: as §2, §3

[13] = target: T2, human CD4, membrane-bound on cells …; assay: FACS, fresh blood CD4+ T cells of subject F2; free CD4 sites left by dB4 detected by dB4C7-Alexa (250 ng/mL)
[14] = target: T2, human CD4, membrane-bound on cells …; assay: FACS, fresh blood CD4+ T cells of subject M2; free CD4 sites left by dB4 detected by dB4C7-Alexa (250 ng/mL)
[15] = target: T2, human CD4, membrane-bound on cells …; assay: saturation binding to HPB-ALL cells on ice 1 h; free antibody by ELISA, bound by subtraction, curve fit; exp. 1
Procedure: (§4) The resultant saturating free-vs.-bound concentration profiles were analyzed on SigmaPlot by curve-fitting based on the equation, [B]=Bmax·{[F]/([F]+Kd)}, where the respective [B] and [F] stand for the bound and free concentrations.
(§5) The binding study was conducted at cold and/or under 0.05% azide to avoid a potential endocytosis of the ligand-receptor complexes. Incubation at room temperature or 37° C. could allow a reaction plateau to be reached sooner. […] The supernatants were collected for determination by ELISA of the free drug concentrations, and the bound fractions were obtained by subtraction from the total.

[16] = target: T2, human CD4, membrane-bound on cells …; assay: saturation binding to HPB-ALL cells on ice 1 h; free antibody by ELISA, bound by subtraction, curve fit; exp. 2
Procedure: as §4, §5

[17] = target: T2, human CD4, membrane-bound on cells …; assay: FACS direct binding to blood CD4+ T cells of one individual, 4°C 1 h (printed as IC50 here, as EC50 in paragraph 342)
Source text: The MFI values reflect the degree of receptor occupancy, in particular when these values are normalized and expressed as % MFI.

[18] = target: T2, human CD4, membrane-bound on cells …; assay: FACS, fresh blood CD4+ T cells, mean of six subjects; free CD4 sites left by dB4 detected by dB4C7-Alexa (250 ng/mL)

T1 sequence (A0A096MWA4 entry or part of it limits assumed, form in doubt): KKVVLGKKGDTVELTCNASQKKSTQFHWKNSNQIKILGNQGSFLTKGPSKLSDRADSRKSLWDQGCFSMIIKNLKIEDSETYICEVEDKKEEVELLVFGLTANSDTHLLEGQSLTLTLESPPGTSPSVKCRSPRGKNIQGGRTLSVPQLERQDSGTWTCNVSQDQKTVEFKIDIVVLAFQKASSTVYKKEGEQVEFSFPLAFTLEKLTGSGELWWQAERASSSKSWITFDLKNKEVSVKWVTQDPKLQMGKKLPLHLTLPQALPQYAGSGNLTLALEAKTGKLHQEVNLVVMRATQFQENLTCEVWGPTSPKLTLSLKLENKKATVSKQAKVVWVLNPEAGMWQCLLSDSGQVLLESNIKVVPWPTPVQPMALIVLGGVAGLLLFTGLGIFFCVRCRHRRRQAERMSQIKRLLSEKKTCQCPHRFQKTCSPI

B1: mAb dB4C7 (human deimmunized, Fc-aglycosylated IgG1 derived from murine mAb B4, expressed by clone 7) (antibody, V domains shown)
VH: QVQLVQSGPELKKPGASVKVSCKASGYTFTDYVIHWVKQATGQGLEWIGEIYPGSGSAYSNAKFKDRVTMTADKSSNTAYMELSSLTSDDTAVYFCARRGNGTGFAYWGQGTLVTVSS
VL: DIVLTQSPASLAVSLGQRATITCKAGQSVDYDGDSYMNWYQQKPGQPPKLLIYVASNLESGIPARFSGSGSGTDFTLNIHPVEENDAATYYCQQSYKDPLTFGQGTKLEIKR
modifications: N-glycosylated at Asn101 in the Fv; Fc N-glycosylation site removed (N298H)
notes: treated as one molecule; also called deimmunized B4
Which EC50 [1] does the source give for B1 here?
The EC50 was 290 ng/mL.

And the “fold binding affinity against gp120 MN” value [2]?
The value was no less than 50 fold.

What about the IC50 (recombinant soluble CD4) of the same binder?
Its IC50 is 8190 ng/mL.

What about the “fold binding affinity, CD4-positive T cells against sCD4” value [3] of the same binder?
Its value is greater than 40 fold.

What about the EC50 [4] of the same binder?
Its EC50 is 4.7 ng/mL.

What about the EC50 [5] of the same binder?
The EC50 was 5.7 ng/mL.

What about the EC50 [6] of the same binder?
The EC50 was 3.7 ng/mL.

What about the EC50 [7] of the same binder?
The EC50 was 3.7 ng/mL.

What about the EC50 [8] of the same binder?
The EC50 was 4.2 ng/mL.

What about the EC50 [9] of the same binder?
The EC50 was 2.6 ng/mL.

What about the EC50 [10] of the same binder?
Its EC50 is 40.7 ng/mL.

And the EC50 [11]?
The EC50 was 40.7 ng/mL.

What about the EC50 [12] of the same binder?
Its EC50 is 42.2 ng/mL.

What about the EC50 [13] of the same binder?
Its EC50 is 6.6 ng/mL.

And the EC50 [14]?
The EC50 was 4.6 ng/mL.

What about the Kd [15] of the same binder?
Its Kd is 0.057 nM and 0.0086 µg/mL.

What about the Kd [16] of the same binder?
Its Kd is 0.0121 µg/mL and 0.081 nM.

What about the EC50 [17] of the same binder?
The EC50 was 23 ng/mL.

What about the EC50 [18] of the same binder?
Its EC50 is 4.7 ng/mL.
